Measurements reported in US20040005550A1, “Methods and compositions useful for targeting activated vitronectin receptor alphavbeta3” (The Scripps Research Institute, priority 1998, published 2004).

Biological target: T1, αvβ3 expressed in CHO cells (Homo sapiens, UniProt P05106+P06756)
T1 construct: cDNAs encoding full-length human αv and β3 were subcloned into pcDNA3 and pCDM8; expressed in transfected cells
Test: Flow cytometry ligand binding to αvβ3-CHO cells
Conditions: in presence of antibody AP5; 2 mM RGDS, 50 μM cRGDfV, 1 μM Integrilin, 100 μg/ml LM609
Procedure: Binding of aPB, WOW-1 Fab and FITC-fibrinogen to cells was assessed by flow cytometry. Typically, cells were cultured overnight in low serum medium (e.g., 0.5% fetal bovine serum), resuspended in incubation buffer at 1-1.5×10^7 cells/ml, and 4-6×10^5 cells were incubated with one of these ligands for 30 min at room temperature in a final volume of 50 μl. […] In some experiments, ligand binding and αvβ3 expression were measured simultaneously by incubation of cells with ligands in the presence of biotin-SSA6 (7 μg/ml), a non-function-blocking anti-β3 monoclonal antibody (Abrams, C., Deng, J., Steiner, B., and Shattil, S. J. (1994) J. Biol. Chem. 269, 18781-18788). After 30 min at room temperature, cells were washed and incubated with phycoerythrin-streptavidin (1:25 final dilution; Molecular Probes) for 20 min on ice. In the case of WOW-1 Fab, an Alexa-conjugated anti-(His)6 monoclonal antibody (Accurate Chemical and Scientific Corp., Westbury, N.Y.) was added at this stage (50 μg/ml). Cells were washed and resuspended in 0.5 ml incubation buffer containing 2 μg/ml propidium iodide (Sigma, St. Louis, Mo.). Ligand binding (FL1 channel) was analyzed immediately on the gated subset of live cells (propidium iodide-negative, FL3) that was strongly positive for αvβ3 expression (FL2). […]

T1 sequence (P06756 31-889 limits assumed): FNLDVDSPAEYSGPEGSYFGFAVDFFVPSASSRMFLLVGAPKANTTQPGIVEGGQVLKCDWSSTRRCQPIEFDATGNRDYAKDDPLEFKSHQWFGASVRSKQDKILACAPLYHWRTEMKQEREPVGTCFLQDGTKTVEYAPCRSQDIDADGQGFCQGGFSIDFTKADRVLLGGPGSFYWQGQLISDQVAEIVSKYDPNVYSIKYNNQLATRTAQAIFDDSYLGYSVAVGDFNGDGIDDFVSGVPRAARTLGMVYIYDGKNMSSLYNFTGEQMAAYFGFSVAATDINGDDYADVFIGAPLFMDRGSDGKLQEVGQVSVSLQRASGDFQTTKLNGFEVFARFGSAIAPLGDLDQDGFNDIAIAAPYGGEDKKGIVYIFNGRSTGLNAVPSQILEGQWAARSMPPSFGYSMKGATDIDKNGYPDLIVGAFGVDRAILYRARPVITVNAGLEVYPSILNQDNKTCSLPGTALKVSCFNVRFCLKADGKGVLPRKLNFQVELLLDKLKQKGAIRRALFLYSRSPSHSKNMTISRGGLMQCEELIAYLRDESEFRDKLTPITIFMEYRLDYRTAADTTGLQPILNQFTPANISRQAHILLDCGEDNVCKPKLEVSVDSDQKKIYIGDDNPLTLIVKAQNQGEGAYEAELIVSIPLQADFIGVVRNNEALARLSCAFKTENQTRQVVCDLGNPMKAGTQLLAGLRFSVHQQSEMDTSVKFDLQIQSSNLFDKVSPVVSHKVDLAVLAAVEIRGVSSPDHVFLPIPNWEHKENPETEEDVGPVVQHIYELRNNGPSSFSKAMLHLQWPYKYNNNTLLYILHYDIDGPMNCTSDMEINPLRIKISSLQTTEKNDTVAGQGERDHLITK
T1 sequence (P06756 891-1048 partner limits assumed): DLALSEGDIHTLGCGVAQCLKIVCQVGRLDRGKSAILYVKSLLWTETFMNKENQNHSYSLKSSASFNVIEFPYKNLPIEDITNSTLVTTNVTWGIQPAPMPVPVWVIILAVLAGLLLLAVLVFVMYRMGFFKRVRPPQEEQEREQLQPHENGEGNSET
T1 sequence (P05106 27-788): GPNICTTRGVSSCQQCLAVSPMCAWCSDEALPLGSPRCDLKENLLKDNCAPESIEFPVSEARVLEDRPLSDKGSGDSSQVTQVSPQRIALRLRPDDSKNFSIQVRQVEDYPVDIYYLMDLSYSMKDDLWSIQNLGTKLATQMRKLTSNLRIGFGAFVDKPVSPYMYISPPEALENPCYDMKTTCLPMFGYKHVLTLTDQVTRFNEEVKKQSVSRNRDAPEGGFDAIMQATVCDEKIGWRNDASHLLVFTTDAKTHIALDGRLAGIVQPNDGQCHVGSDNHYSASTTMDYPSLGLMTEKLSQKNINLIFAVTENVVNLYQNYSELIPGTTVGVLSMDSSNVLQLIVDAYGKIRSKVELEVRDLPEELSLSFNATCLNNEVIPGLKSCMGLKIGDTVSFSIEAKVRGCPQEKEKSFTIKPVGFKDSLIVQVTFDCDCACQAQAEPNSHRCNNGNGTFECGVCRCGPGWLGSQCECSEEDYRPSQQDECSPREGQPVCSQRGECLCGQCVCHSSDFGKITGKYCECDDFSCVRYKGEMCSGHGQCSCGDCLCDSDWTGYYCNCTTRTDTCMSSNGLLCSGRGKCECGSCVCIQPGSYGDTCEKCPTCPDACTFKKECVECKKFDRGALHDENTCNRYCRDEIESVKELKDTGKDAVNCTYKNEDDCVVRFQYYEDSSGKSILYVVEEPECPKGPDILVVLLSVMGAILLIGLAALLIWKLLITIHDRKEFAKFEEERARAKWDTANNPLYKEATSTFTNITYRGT

B1: LM609: αvβ3-specific function-blocking monoclonal antibody (antibody, V domains shown)
VH: EVQLEESGGGLVKPGGSLKLSCAASGFAFSSYDMSWVRQIPEKRLEWVAKVSSGGGSTYYLDTVQGRFTISRDNAKNTLYLQMSSLNSEDTAMYYCARHNYGSFAYWGQGTLVTVSA
VL: ELVMTQTPATLSVTPGDSVSLSCRASQSISNHLHWYQQKSHESPRLLIKYASQSISGIPSRFSGSGSGTDFTLSINSVETEDFGMYFCQQSNSWPHTFGGGTKLEIKRA
  inhibition of aPB and WOW-1 Fab binding: more than 70%
